For assay [1], the target named is T1, vascular endothelial growth factor (VEGF) (UniProt P15692-4 27-191, limits assumed, labeled with biotin for the BioVeris assay (sites not given)). Nature of the assay: BioVeris ECL competition with a labeled competitor; grade +++ = apparent IC50 about 2-10 µM. As to the method:
(§1) The resulting vectors were used to transform B. subtilis BG6006 host cells. Cultures were grown in 500 ml of MBD medium and the BBI species were purified essentially as described above and by Vogtentanz et al., 2007 (Protein Expr Purif 55:40-52 [2007]). BioVeris binding assays were performed essentially as outlined in Example 5 and by the manufacturer. Binding of the modified variant BBIs to their respective target proteins was measured using a BioVeris® binding assay, which is a competition assay that determines the binding of the modified variant BBIs to its target protein (e.g. VEGF, FGF5, TGFβ and TNFα) in the presence or absence of a labeled competitor. The competitor can be a labeled monoclonal antibody raised against the target protein or a labeled native receptor of the target protein. The electrochemiluminescent binding assays were performed essentially as described in Example 5. The apparent IC50s were determined from binding data by determining the concentration of the BBI species needed to reduce the BioVeris signal by one half. BBI scaffolds without the target binding peptide in the chymotrypsin inhibitory loop were used as negative controls.

In assay [2] the target is T2, transforming growth factor β1 (TGFβ1) (UniProt P01137 279-390). Description: BioVeris ECL competition with a labeled competitor; negative control for TGFβ binding. The protocol:
as §1

Assay [3] has as its target T3, fibroblast growth factor 5 (FGF-5) (UniProt P12034 21-268, limits assumed).
T3 sequence (looked up): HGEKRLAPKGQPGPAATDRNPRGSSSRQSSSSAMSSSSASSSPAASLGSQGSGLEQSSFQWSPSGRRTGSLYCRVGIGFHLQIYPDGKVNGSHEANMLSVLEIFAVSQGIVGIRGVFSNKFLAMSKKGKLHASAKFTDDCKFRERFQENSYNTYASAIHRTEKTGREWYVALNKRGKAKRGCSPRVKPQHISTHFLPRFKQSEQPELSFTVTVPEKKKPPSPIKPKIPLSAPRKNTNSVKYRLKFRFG
Description: BioVeris ECL competition with a labeled competitor; grade ++ = apparent IC50 about 10-50 µM. As to the method: as §1

Assay [4] addresses T2, transforming growth factor β1 (TGFβ1). Described as above. The protocol: as §1
The target of assay [5] is T1, vascular endothelial growth factor …. The assay is described as above. As to the method:
as §1

The target of assay [6] is T4, tumor necrosis factor α (TNFα) (UniProt P01375 77-233). Description: BioVeris ECL competition with a labeled competitor; grade + = apparent IC50 about 50-250 µM. As to the method:
as §1

The target in assay [7] is T4, tumor necrosis factor α (TNFα). Description: BioVeris ECL competition with a labeled competitor; grade ++ = apparent IC50 about 10-50 µM. As to the method:
as §1

For assay [8] the target is unchanged. Nature of the assay: BioVeris ECL competition with a labeled competitor; negative control for TNFα binding. As to the method: as §1
Assay [9] addresses T1, vascular endothelial growth factor …. Nature of the assay: BioVeris ECL competition with a labeled competitor; negative control for VEGF binding. As to the method:
as §1

Assay [10] addresses T3, fibroblast growth factor 5 (FGF-5). Nature of the assay: BioVeris ECL competition with a labeled competitor; negative control for FGF-5 binding. The protocol:
as §1

The record followed here is patent US20100092409A1 (DANISCO US, published 2010).

Changes are numbered by the printed parent chain. Names may count otherwise.

T2 sequence (P01137 279-390 limits assumed): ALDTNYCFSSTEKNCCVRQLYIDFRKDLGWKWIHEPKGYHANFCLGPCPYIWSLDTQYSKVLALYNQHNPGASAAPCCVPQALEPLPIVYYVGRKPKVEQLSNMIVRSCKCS
T4 sequence (P01375 77-233 limits assumed): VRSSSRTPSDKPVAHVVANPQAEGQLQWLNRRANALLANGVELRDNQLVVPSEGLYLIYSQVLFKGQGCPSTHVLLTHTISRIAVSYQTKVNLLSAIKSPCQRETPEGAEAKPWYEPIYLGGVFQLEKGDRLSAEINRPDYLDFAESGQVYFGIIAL
T1 sequence (P15692 other isoform, or with tags, fused parts or gaps limits assumed): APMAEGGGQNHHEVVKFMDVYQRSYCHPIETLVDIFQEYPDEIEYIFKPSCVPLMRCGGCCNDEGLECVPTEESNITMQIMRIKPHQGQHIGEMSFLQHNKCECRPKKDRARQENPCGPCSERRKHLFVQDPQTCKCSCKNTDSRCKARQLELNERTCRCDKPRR

B1: BBIt-AV-A13I-L29P-A40K-F50T-V52A (designed binder)
chain: DPDDESSKPCCDQCICTKSNPPQCRCSDMRPNSCHSACKSCKCYNLYGWTCTCADITDFCYEPCKPSE
notes: also called TA5; quintuple variant
Broadly, the IC50 is the concentration that inhibits the measured activity by half. For the molecule B1, the IC50 in [1] lay within 2 to 10 µM.

B2: FGFps2-Q-BBIt-FGF-5 (designed binder)
chain: B1 chain with K42A, Y44T, N45W, L46I, Y47D, G48S, W49T, T50P
notes: also called BBIt-FGFps2-Q-A13I-L29P-F50T-V52A
B2: the IC50 in assay [2] was greater than 250 µM; in assay [3] it was 10 to 50 µM.

B3: MM007-Q-BBIt-FGF-5 (designed binder)
chain: B1 chain with K42A, Y44R, N45T, L46Q, Y47P, G48Y, W49P, T50L
notes: also called BBIt-MM007-Q-A13I-L29P-F50T-V52A
Take B3: the IC50 in assay [3] is 10 to 50 µM.

B4: MM021W-Q-BBIt-TGFβ1 (designed binder)
chain: B1 chain with K42A, Y44K, N45H, L46N, Y47V, G48D, T50L
notes: also called BBIt-MM021W-Q-A13I-L29P-F50T-V52A
Consider B4, for which, in assay [4], the IC50 lay in the range of 10 to 50 µM.

B5: WTQ-Q-BBIt-TGFβ1 (designed binder)
chain: B1 chain with K42A, Y44W, N45T, L46Q, Y47H, G48I, W49H, T50N
notes: also called WTQ-BBIt-Q-TGF; BBIt-WTQ-Q-A13I-L29P-F50T-V52A
In the case of B5, in [4], the IC50 was in the range of 10 to 50 µM.

B6: BBIt-AV-A13I-S25K-M27A-L29R-S31A-A40H-F50R-V52L (designed binder)
chain: B1 chain with S27K, M29A, P31R, S33A, K42H, T52R, A54L
notes: also called RL8
Regarding B6, the IC50 in [1] lay within 2 to 10 µM.

B7: BBIt-AV-A13I-A40K-F50T-V52A (designed binder)
chain: B1 chain with P31L
As for B7, the concentration for half-maximal inhibition (IC50) in [1] lay within 2 to 10 µM.

B8: BBIt-AV-A13I-S25K-M27A-L29R-S31E-A40K-F50Q-V52Q (designed binder)
chain: B1 chain with S27K, M29A, P31R, S33E, T52Q, A54Q
notes: also called QQ8
With B8, the IC50 in assay [1] was in the range of 2 to 10 µM.

B9: BBIt-AV-A13I-S25R-M27A-L29P-S31A-A40H-F50K-V52T (designed binder)
chain: B1 chain with S27R, M29A, S33A, K42H, T52K, A54T
notes: also called KT8
With B9, in [1], the IC50 fell in the range of 2 to 10 µM.

B10: BBIt-VEGKD-A13I-S25K-L29P-V52K (designed binder)
chain: DPDDESSKPCCDQCICTKSNPPQCRCKDMRPNSCHSACKSCICKYDLYWWCFCKDITDFCYEPCKPSE
notes: also called VegKD-Q
Consider B10, for which, in [1], the IC50 is 2 to 10 µM.

B11: BBIt-VEGF-V5-A13I-S25R-M27A-L29P-S31A-F50K-V52T (designed binder)
chain: DPDDESSKPCCDQCICTKSNPPQCRCRDARPNACHSACKSCACKPSSASSCKCTDITDFCYEPCKPSE
notes: also called BBIt-AV-V5
For B11, the IC50 in [5] lay in the range of 10 to 50 µM.

B12: BBIt-TNFα-T2-A13I-S25R-M27A-L29P-S31A-F50K-V52T (designed binder)
chain: B11 chain with K44A, S46E, S47P, A48I, S49L, S50A
notes: also called BBIt-TNF-T2
With B12, the IC50 in [6] lay within 50 to 250 µM.

B13: BBIt-TNFα-T3-A13I-S25R-M27A-L29P-S31A-F50K-V52T (designed binder)
chain: B11 chain with K44D, P45M, S46I, S47M, A48V, S50I
notes: also called BBIt-TNF-T3
Take B13: in [6], the IC50 lay within 50 to 250 µM.

B14: BBIt-TNFα-T1-A13I-S25R-M27A-L29P-S31A-F50K-V52T (designed binder)
chain: B11 chain with K44R, P45Y, S46W, S47Q, A48D, S49I, S50P
notes: also called BBIt-TNF-T1
On to B14, for which, in [7], the IC50 lay within 10 to 50 µM.

B15: BBIt-VEGF-V2-A13I-S25R-M27A-L29P-S31A-F50K-V52T (designed binder)
chain: B11 chain with P45T, S46N, S47P, A48S, S49G
notes: also called BBIt-AV-V2
As to B15, the IC50 in assay [1] was 2 to 10 µM.

B16: BBIt-VEGF-V4-A13I-S25R-M27A-L29P-S31A-F50K-V52T (designed binder)
chain: B11 chain with P45H, S47A, A48K, S49A, S50E
notes: also called BBIt-AV-V4
On to B16, for which, in assay [1], the half-maximal inhibitory concentration (IC50) lay within 2 to 10 µM.

B17: BBIt-VEGF-V3-A13I-S25R-M27A-L29P-S31A-F50K-V52T (designed binder)
chain: B11 chain with K44R, S46T, S47G, A48H, S50L
notes: also called BBIt-AV-V3
For B17, the IC50 in assay [5] fell in the range of 10 to 50 µM.

B18: BBIt-VEGF-V1-A13I-S25R-M27A-L29P-S31A-F50K-V52T (designed binder)
chain: B11 chain with K44S, P45K, S46H, A48Q, S49I, S50T
notes: also called BBIt-AV-V1
On to B18, for which the values for the IC50 in assay [8] and in assay [5] were greater than 250 µM and 10 to 50 µM, respectively.

B19: BBIt-VEGF-V6-A13I-S25R-M27A-L29P-S31A-F50K-V52T (designed binder)
chain: B11 chain with K44P, P45V, S46T, S47K, A48R, S49V, S50H
notes: also called BBIt-AV-V6
As to B19, in assay [5], the IC50 is 10 to 50 µM.

B20: BBIt-AV (truncated BBI-AV, unmodified variant) (designed binder)
chain: DDESSKPCCDQCACTKSNPPQCRCSDMRLNSCHSACKSCACYNLYGWTCFCVDITDFCYEPCKPSE
notes: also called CT
For the molecule B20, the IC50 in assay [1] lay within 2 to 10 µM.

B21: PEN3-Q-BBIt-TGFβ1 (designed binder)
chain: DPDDESSKPCCDQCICTKSNPPQCRCSDMRPNSCHSACKSCACPENINVLPCTCADITDFCYEPCKPSE
notes: also called BBIt-PEN3-Q-A13I-L29P-F50T-V52A
In the case of B21, the half-maximal inhibitory concentration (IC50) in assay [4] is 10 to 50 µM.

B22: BBdb-AV (Dolichos biflorus Bowman Birk Inhibitor with CK37281 in the second protease inhibitory loop) (designed binder)
chain: DPSESSKPCCDQCACTKSIPPQCRCTDVRLNSCHSACSSCACYNLYGWTCVCVDMKDFCYEPCK
notes: also called BBIdb-AV
Take B22: the half-maximal inhibitory concentration (IC50) in [1] lay in the range of 2 to 10 µM.

B23: soybean Bowman-Birk Inhibitor (BBI), wild type (other)
chain: DDESSKPCCDQCACTKSNPPQCRCSDMRLNSCHSACKSCICALSYPAQCFCVDITDFCYEPCKPSEDDKEN
notes: Used as the negative control; also called sBBI; BBI-WT
With B23, the IC50 in assay [9] and in [10] was greater than 250 µM in each case.

B24: BBtc-AV (Torresea cearensis Bowman Birk Inhibitor with CK37281 in the second protease inhibitory loop) (designed binder)
chain: DPSSKWEACCDRCACTKSIPPQCHCADIRLNSCHSACESCACYNLYGWTCRCFDITDFCYKPCSG
notes: also called BBItc-AV
For B24, in assay [1], the IC50 fell in the range of 2 to 10 µM.
